Measurements reported in the supplement of paper PMC12042874.
± gives the uncertainty stated by the source.

Test: amyloid nucleation score (Sup35N fusion, yeast selection) (log enrichment); library NNK2; higher = more nucleation; inactive = no reads after selection
Procedure, shortened: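 The nucleation score is a DiMSum log enrichment of output over input reads, centred on the mode score of non-aggregating sequences. Sequences under 100 input reads were excluded, and reads came from Illumina sequencing of plasmid inserts. Psi-negative yeast expressing Sup35N fused to peptides of 20 random codons were induced with 100 μM copper sulfate for 24 hours and grown 7 days at 30°C on medium lacking adenine and uracil. Random libraries had three technical output replicates.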

Question: Which amyloid nucleation score does the source give for SMISM here?
Answer: 0.947 ± 0.3

Question: For SMKHRHSRMVTFGVLV, which amyloid nucleation score is on record?
Answer: 0.163 ± 0.28

Question: Which amyloid nucleation score does the source give for SMMTVADP here?
Answer: -0.529 ± 0.79

Question: With SMRISHTGAQQDLDDCAMRK as the substance, how does the amyloid nucleation score read?
Answer: 0.635 ± 0.65

Question: For SMRVVCYWVLRW, which amyloid nucleation score is on record?
Answer: 3.16 ± 0.075

Question: With SMTDRFPSIIYRECILWVTW as the substance, how does the amyloid nucleation score read?
Answer: -0.035 ± 0.76

Question: With SMYSSASMQWSDRFNILYEV as the substance, how does the amyloid nucleation score read?
Answer: -0.291 ± 0.31

Question: With SMYVN as the substance, how does the amyloid nucleation score read?
Answer: -0.384 ± 0.56

Question: Which amyloid nucleation score does the source give for SNCFNCYLISNWKYVTVSLS here?
Answer: 6.23 ± 0.067

Question: For SNDDIEIAKRSHMY, which amyloid nucleation score is on record?
Answer: 0.196 ± 0.54

Question: Which amyloid nucleation score does the source give for SNEGWIKCWILYFVFGAWMI here?
Answer: -0.896 ± 0.79

Question: With SNFCFSTR as the substance, how does the amyloid nucleation score read?
Answer: 0.328 ± 0.32

Question: With SNGKYG as the substance, how does the amyloid nucleation score read?
Answer: 1.32 ± 0.26

Question: For SNGYYSNGPTLLHATTHVTV, which amyloid nucleation score is on record?
Answer: -0.431 ± 0.64

Question: With SNKTIYKLFRIISPGYFGSS as the substance, how does the amyloid nucleation score read?
Answer: -1.16 ± 1

Question: With SNNMFWFLNYYVGIYMWISP as the substance, how does the amyloid nucleation score read?
Answer: -1.21 ± 0.75

Question: With SNSRKMCDMGKDDNGYKGTH as the substance, how does the amyloid nucleation score read?
Answer: -0.483 ± 1

Question: Which amyloid nucleation score does the source give for SNVLFWI here?
Answer: inactive

Question: With SNVSVYPTMWGRVVHRPYTW as the substance, how does the amyloid nucleation score read?
Answer: 0.032 ± 0.39

Question: Which amyloid nucleation score does the source give for SNYGTGDGCCVGV here?
Answer: 1.81 ± 0.099

Question: Which amyloid nucleation score does the source give for SPAQCIGVCNRLKLYCST here?
Answer: 0.262 ± 0.45

Question: For SPLEKATRFPTWEQCTVASM, which amyloid nucleation score is on record?
Answer: 0.405 ± 0.23

Question: Which amyloid nucleation score does the source give for SPLHKKVYKRLRLTSDTRQI here?
Answer: -0.516 ± 0.55

Question: With SPLVLGFSRK as the substance, how does the amyloid nucleation score read?
Answer: -1.02 ± 0.76

Question: For SPYVRWDKTNLIGWEWYRVE, which amyloid nucleation score is on record?
Answer: -0.819 ± 0.43

Question: For SQISYEWDATIHQWLCKWFW, which amyloid nucleation score is on record?
Answer: 8.355 ± 0.031

Question: With SQSNMILYWADRF as the substance, how does the amyloid nucleation score read?
Answer: 5.33 ± 0.057

Question: For SQYFYMFWMSRATITNTIMP, which amyloid nucleation score is on record?
Answer: -0.217 ± 0.74

Question: Which amyloid nucleation score does the source give for SRACRFTFD here?
Answer: 0.49 ± 0.42

Question: For SRAKMVFNFGAWFSRVCKN, which amyloid nucleation score is on record?
Answer: 2.42 ± 0.088

Question: With SRCGLLMVSPNAVPSGLAHR as the substance, how does the amyloid nucleation score read?
Answer: 1.18 ± 0.31

Question: With SRCIFVFYS as the substance, how does the amyloid nucleation score read?
Answer: 8.165 ± 0.059

Question: For SREGLCCNIVYA, which amyloid nucleation score is on record?
Answer: -0.45 ± 0.37

Question: For SREYHSCKCQMLYMSQWSKG, which amyloid nucleation score is on record?
Answer: -0.787 ± 0.55

Question: With SRGSSMMQIYFL as the substance, how does the amyloid nucleation score read?
Answer: 5.995 ± 0.059

Question: For SRGVS, which amyloid nucleation score is on record?
Answer: -0.433 ± 0.43

Question: With SRHTIVTGRWLFRDYQSLLW as the substance, how does the amyloid nucleation score read?
Answer: 0.19 ± 1.1

Question: With SRHVLSKRFRWYT as the substance, how does the amyloid nucleation score read?
Answer: 0.196 ± 0.26

Question: With SRIGVLPDNVDTSAKLAYRL as the substance, how does the amyloid nucleation score read?
Answer: 6.95 ± 0.078

Question: Which amyloid nucleation score does the source give for SRITCKDVMLL here?
Answer: -0.654 ± 0.49

Question: With SRKPSILNLRLALVSG as the substance, how does the amyloid nucleation score read?
Answer: 0.43 ± 0.33

Question: Which amyloid nucleation score does the source give for SRLPLTSMTNSHSWA here?
Answer: 0.363 ± 0.43

Question: Which amyloid nucleation score does the source give for SRLTS here?
Answer: 2.32 ± 0.066

Question: With SRNLGGNYGLGGWCNEEFRR as the substance, how does the amyloid nucleation score read?
Answer: 0.185 ± 0.65

Question: With SRSWTLKFRLGGNVKQYCTW as the substance, how does the amyloid nucleation score read?
Answer: 5.72 ± 0.091

Question: For SRTAWVDLPDCWQVVKFGSV, which amyloid nucleation score is on record?
Answer: -0.025 ± 1.1

Question: For SRTWEFSFR, which amyloid nucleation score is on record?
Answer: 2.5 ± 0.12

Question: Which amyloid nucleation score does the source give for SRVDNVSSAPAISAMGVWCG here?
Answer: 1.14 ± 0.38

Question: With SRYVPMSFY as the substance, how does the amyloid nucleation score read?
Answer: 0.125 ± 0.79

Question: With SSAWYFSLGTDIAFDAGYSA as the substance, how does the amyloid nucleation score read?
Answer: -0.108 ± 1.1

Question: Which amyloid nucleation score does the source give for SSCVRLDELCAMMSMSWESQ here?
Answer: 1.26 ± 0.38

Question: With SSFCNISAAGYFHIVMLRVV as the substance, how does the amyloid nucleation score read?
Answer: -0.3 ± 0.5

Question: Which amyloid nucleation score does the source give for SSFFVAPGSSLLLIRLLCSS here?
Answer: inactive

Question: With SSFQEC as the substance, how does the amyloid nucleation score read?
Answer: -1.2 ± 0.62

Question: For SSFVIPSKR, which amyloid nucleation score is on record?
Answer: -1.31 ± 0.78

Question: Which amyloid nucleation score does the source give for SSFVNRWCEHYNGVVVSWLL here?
Answer: 0.236 ± 0.17

Question: With SSGGIDQFGRESISHHWLC as the substance, how does the amyloid nucleation score read?
Answer: -0.858 ± 0.76

Question: With SSKRVMKYRCDRWMADTCRK as the substance, how does the amyloid nucleation score read?
Answer: 0.201 ± 0.8

Question: With SSLGIRNCVGTSYVMSPIIV as the substance, how does the amyloid nucleation score read?
Answer: 0.178 ± 0.53

Question: With SSLVWLKMNGNGTKTVFMN as the substance, how does the amyloid nucleation score read?
Answer: 1.24 ± 0.14

Question: With SSNNMEIIYVFFLCREAQKL as the substance, how does the amyloid nucleation score read?
Answer: -0.78 ± 1.1

Question: For SSQCRDVGEAGNHWCLSGSG, which amyloid nucleation score is on record?
Answer: 2.8 ± 0.14

Question: Which amyloid nucleation score does the source give for SSQGLPDNGTRPLGWKYR here?
Answer: 0.417 ± 0.4

Question: Which amyloid nucleation score does the source give for SSQTKYQAFRVQATGVCAWM here?
Answer: -0.123 ± 0.23

Question: Which amyloid nucleation score does the source give for SSRCFSVYSDIMYGTFLS here?
Answer: inactive

Question: With SSRDKILTSMKIWMLRFLAN as the substance, how does the amyloid nucleation score read?
Answer: 0.37 ± 0.51

Question: For SSSALEANINQSMEDIKEAF, which amyloid nucleation score is on record?
Answer: -0.427 ± 1.1

Question: With SSSKRNSKDPSGLGLVCVE as the substance, how does the amyloid nucleation score read?
Answer: 0.795 ± 0.46

Question: Which amyloid nucleation score does the source give for SSTHVPLRVFHGEIMWQQIL here?
Answer: -0.291 ± 1.1

Question: Which amyloid nucleation score does the source give for SSTKFAHTFVHNKWVYSGFS here?
Answer: 2.46 ± 0.11

Question: For SSWSLCIYLINRKKAEYVVI, which amyloid nucleation score is on record?
Answer: 0.462 ± 0.53

Question: For SSYESLCKIYLNFCQTD, which amyloid nucleation score is on record?
Answer: 6.761 ± 0.059

Question: With SSYKKYSVVN as the substance, how does the amyloid nucleation score read?
Answer: -1.59 ± 0.48

Question: Which amyloid nucleation score does the source give for SSYPFNDPEMLG here?
Answer: -1.09 ± 0.33

Question: Which amyloid nucleation score does the source give for SSYSDLIQLNSNWMWCICLL here?
Answer: 8.101 ± 0.06

Question: For STAFFSIIIVFFISTCRETP, which amyloid nucleation score is on record?
Answer: -0.78 ± 0.63

Question: Which amyloid nucleation score does the source give for STCIMDLSWCKVRRFGSTQV here?
Answer: -0.149 ± 0.79

Question: Which amyloid nucleation score does the source give for STCLQD here?
Answer: -0.966 ± 1.1

Question: Which amyloid nucleation score does the source give for STKITAESGR here?
Answer: 0.502 ± 0.41

Question: For STNEWF, which amyloid nucleation score is on record?
Answer: -1.06 ± 0.62

Question: With STRCCTRYVCRTAV as the substance, how does the amyloid nucleation score read?
Answer: -0.158 ± 0.34

Question: With STRTSADRSFIIMVWCNIDL as the substance, how does the amyloid nucleation score read?
Answer: 3.62 ± 0.081

Question: With STVELEQYGSSARADYLVWR as the substance, how does the amyloid nucleation score read?
Answer: 0.58 ± 0.64

Question: With STVFYMNLQGVFRTVSWV as the substance, how does the amyloid nucleation score read?
Answer: 2.8 ± 0.18

Question: With STVICSVYFDVVASFDIVYI as the substance, how does the amyloid nucleation score read?
Answer: 1.39 ± 0.24

Question: With SVAFILVPNEWLVKRAASSG as the substance, how does the amyloid nucleation score read?
Answer: -0.264 ± 0.45

Question: Which amyloid nucleation score does the source give for SVCELKW here?
Answer: 0.53 ± 0.38

Question: With SVCVRT as the substance, how does the amyloid nucleation score read?
Answer: inactive
